Here are results for 28 sequences from the supplement of paper PMC9170038.

This series relates to MS2 coat protein. The series is described as follows: apparent KD of MS2 coat protein; designed switch direction (-1 OFF switch, 1 ON switch): 1; higher = weaker reporter binding. The essentials: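 Designed RNA switches with common flanks were made on Illumina chips by stalled E. coli RNA polymerase. Titration with SNAP-549-labelled MS2 coat protein doubled from 0.7 or 1.5 nM up to 3 µM. Apparent KD is each design's median over clusters after curve-fitting normalised fluorescence.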

The mark [1] stands for this setting: Eterna round: R95, input ligand: FMN 200 uM.
[2] abbreviates: Eterna round: R95, input ligand: microRNA oligo, concentration not stated.
Where [3] appears, read: Eterna round: R95, input ligand: none.
The mark [4] stands for this setting: input ligand: microRNA oligo, concentration not stated.

For the sequence “AGUCCAGCCUGAGCUGGACAAAAGCAUGUACAUGAGGAUCACCCAUGUUCAUGUACAAGCUUUUUGCUCGUAUUAAA [Mat - hsa-mir-208a - Mod of JL - 52] (puzzle: Sensor for hsa-mir-208a)”, the “apparent KD of MS2 coat protein” value is, setting by setting: under setting [1], 555 nM; under setting [2], 14.8 nM; under setting [3], 566 nM.

Consider “AGUCCAGCCUGAGCUGGACAAAAGCAUGUACAUGAGGAUCACCCAUGUUCAUGUACAAGCUUUUUGCUCGUCUUAAU [salish99_208a_r3_027] (puzzle: Sensor for hsa-mir-208a)”, for which the “apparent KD of MS2 coat protein” value runs as follows: under setting [1], 480 nM; under setting [2], 14 nM; under setting [3], 643 nM.

In the case of “AGUCCAGCCUGAGCUGGACAAAAGCAUGUACAUGAGGAUCACCCAUGUUCAUGUACAAGCUUUUUGCUCGUCUUAGA [salish99_208a_r3_059] (puzzle: Sensor for hsa-mir-208a)”, the “apparent KD of MS2 coat protein” value under setting [1] turned out to be 709 nM, the “apparent KD of MS2 coat protein” value under setting [2] was 15.4 nM and the “apparent KD of MS2 coat protein” value under setting [3] worked out at 732 nM.

Turning to “AGUCCAGCCUGAGCUGGACAAAAGUAUGUACAUGAGGAUCACCCAUGUCAUGUACAAGCUUUUUGCUCGUCUUAAUA [Zipper 49 - 9] (puzzle: Sensor for hsa-mir-208a)”, the “apparent KD of MS2 coat protein” value by setting is: under setting [1], 404 nM; under setting [2], 24.1 nM; under setting [3], 511 nM.

Take “AGUCCAGCCUGAGCUGGACAAGAGCAUGUACAUGAGGAUCACCCAUGUUCAUGUACAAGCUUUUUGCUCGUCUUAAA [Zipper 52 - 2] (puzzle: Sensor for hsa-mir-208a)”: the “apparent KD of MS2 coat protein” value was determined as 399 nM under setting [1], 12.7 nM under setting [2] and 565 nM under setting [3].

Regarding “AGUCCAGCCUGAGCUGGACAGAAGCAUGUACAUGAGGAUCACCCAUGUUCAUGUACAAGCUUUUUGCUCGUCUUAAA [Zipper 52 - 3] (puzzle: Sensor for hsa-mir-208a)”, the “apparent KD of MS2 coat protein” value is, setting by setting: under setting [1], 480 nM; under setting [2], 14.2 nM; under setting [3], 436 nM.

For “AGUCCAGCCUGAGCUGGACAUUAGCAUGUACAUGAGGAUCACCCAUGUCAUGUACAAGCUAUUUGCUCGUCUUAAAA [Mat - Sensor - JL mod - D76] (Eterna round: R96, puzzle: Sensor for hsa-mir-208a)”, the “apparent KD of MS2 coat protein” value is 592 nM (input ligand: FMN 200 uM), 15.7 nM under setting [4] and 455 nM (input ligand: none).

Turning to “AGUCCAGCGAAAGCUGGACAAAAGCAUGUACAUGAGGAUCACCCAUGUUCAUGUACAAGUUUUUUGCUCGUCUUAAA [JL mod - D95 - 13] (puzzle: Sensor for hsa-mir-208a)”, the “apparent KD of MS2 coat protein” value stood at 33.7 nM under setting [1], 10.4 nM under setting [2] and 32 nM under setting [3].

For the sequence “AGUCCAGCGAAAGCUGGACAAGAGCAUGUACAUGAGGAUCACCCAUGUUCAUGUACAAGCUUUUUGCUCGUCUUAAA [JL mod - D95 - 2] (puzzle: Sensor for hsa-mir-208a)”, the “apparent KD of MS2 coat protein” value is, setting by setting: under setting [1], 384 nM; under setting [2], 14.3 nM; under setting [3], 439 nM.

Turning to “AGUCCGGCCUGAGCUGGACUGAAGCAUGUACAUGAGGAUCACCCAUGUUCAUGUGCAGGCUUUUUGCUCGUCUUGUG [JL-shm-2.04 JL mod] (Eterna round: R96, puzzle: Sensor for hsa-mir-208a)”, the “apparent KD of MS2 coat protein” value runs as follows: (input ligand: FMN 200 uM) 115 nM; under setting [4], 12.6 nM; (input ligand: none) 103 nM.

As for “AGUCCGGCCUGAGCUGGACUGAAGCAUGUACAUGAGGAUCACCCAUGUUCAUGUGCAGGCUUUUUGCUCGUCUUGUG [JL-shm-2.04 JL mod] (puzzle: Sensor for hsa-mir-208a)”, the “apparent KD of MS2 coat protein” value reads like this: under setting [1], 97.7 nM; under setting [2], 13.4 nM; under setting [3], 124 nM.

As for “AGUCCUGAAAAGAAAAUACAGAGAUAUGUACAUGAGGAUCACCCAUGUCAUGUACAAGUUCUAUGCUCGUCAUAUAA [Sensorship 21 - Jieux - Sensor for hsa-mir-208a] (puzzle: Sensor for hsa-mir-208a)”, the “apparent KD of MS2 coat protein” value by setting is: under setting [1], 202 nM; under setting [2], 63.6 nM; under setting [3], 262 nM.

Turning to “AGUGGACAUGAGGAUCACCCAUGUAUGCUGGCAUGAGGAUAUCCGAUUCGUUUCGACUAAGGAGAAGGCAUAGCCC [Geonla] (Eterna round: R96, puzzle: Same State 1)”, the “apparent KD of MS2 coat protein” value (input ligand: FMN 200 uM) came out at 37 nM, the “apparent KD of MS2 coat protein” value under setting [4] was 98.9 nM and the “apparent KD of MS2 coat protein” value (input ligand: none) was 116 nM.

On to “AUAAAACAUGAGGAUCACCCAUGUCAACAAAGUCGAGGAUAUGGGCAAAUAAAAUAUGAACCAGAAGGCGAAUAAU [salish99_ss1_r3_019] (puzzle: Same State 1)”, for which the “apparent KD of MS2 coat protein” value is 35.8 nM under setting [1], 221 nM under setting [2] and 310 nM under setting [3].

With “AUAAAACAUGAGGAUCACCCAUGUCAACAAAGUCGAGGAUAUGGGCAAUUAAAAUAAGAACCAGAAGGCGAAUAAU [salish99_ss1_r3_025] (Eterna round: R96, puzzle: Same State 1)”, the “apparent KD of MS2 coat protein” value runs as follows: (input ligand: FMN 200 uM) 35.7 nM; under setting [4], 214 nM; (input ligand: none) 250 nM.

Turning to “AUAAAACAUGAGGAUCACCCAUGUCAACAAAGUCGAGGAUAUGGGCAAUUAAAAUAAGAACCAGAAGGCGAAUAAU [salish99_ss1_r3_025] (puzzle: Same State 1)”, the “apparent KD of MS2 coat protein” value is, setting by setting: under setting [1], 26.4 nM; under setting [2], 138 nM; under setting [3], 400 nM.

Take “AUAAAACAUGAGGAUCACCCAUGUCAACAAAGUCGAGGAUAUGGGUAAAUAAAAUAAGAACCAGAAGGCGAAUAAU [salish99_ss1_r3_028] (Eterna round: R96, puzzle: Same State 1)”: the “apparent KD of MS2 coat protein” value (input ligand: FMN 200 uM) is 122 nM, the “apparent KD of MS2 coat protein” value under setting [4] is 713 nM and the “apparent KD of MS2 coat protein” value (input ligand: none) came out at 941 nM.

In the case of “AUAAAACAUGAGGAUCACCCAUGUCAACAAAGUCGAGGAUAUGGGUAAAUAAAAUAAGAACCAGAAGGCGAAUAAU [salish99_ss1_r3_028] (puzzle: Same State 1)”, the “apparent KD of MS2 coat protein” value runs as follows: under setting [1], 83.5 nM; under setting [2], 283 nM; under setting [3], 163 nM.

As for “AUAAAACAUGAGGAUCACCCAUGUCAUCAAAGUCGAGGAUAUGGGCAAAUAAAAUAAGAACCAGAAGGCGAAUAAU [salish99_ss1_r3_043] (puzzle: Same State 1)”, the “apparent KD of MS2 coat protein” value reads like this: under setting [1], 106 nM; under setting [2], 298 nM; under setting [3], 501 nM.

As to “AUAAAUAAACAUGAGGAUCACCCAUGUGUUAUAUAAGCAAAUAAAUAAAUAAAUAAAUAAAUAAAUAAAUAAAUAAA [RNA Sequence] (puzzle: Sensor for hsa-mir-208a version 2)”, the “apparent KD of MS2 coat protein” value was found to be 25.5 nM under setting [1], 26.1 nM under setting [2] and 29.2 nM under setting [3].

Regarding “AUAAAUAACACAGGAUAUCCACACGAAUAGUGCGGAGAAGGGUGAACGUCGGCUCUCGCCAACAUGAGGAUCACCCAUGUAAAA [Tediissobe] (Eterna round: R96, puzzle: Same State NG 1)”, the “apparent KD of MS2 coat protein” value runs as follows: (input ligand: FMN 200 uM) 64.4 nM; under setting [4], 12.7 nM; (input ligand: none) 31.5 nM.

In the case of “AUAACACUGGCAGGAUAUGGGAUUGGAAGUGUUCCAGAAGGGCCAGAACGGCGAUGGACAUGAGGAUCACCCAUGUCUUAGCCU [MOD Powerstrip SSNG 1.4 (Unstable)] (Eterna round: R96, puzzle: Same State NG 1)”, the “apparent KD of MS2 coat protein” value stood at 13 nM (input ligand: FMN 200 uM), 7.66 nM under setting [4] and 9.48 nM (input ligand: none).

In the case of “AUAAGAAACACAGGAUAUACCGUGCUUAACGCGGUAGAAGGGUGGGACAUGAGGAUCACCCAUGUGGUCCGGGCGCCGGACCGC [Erarlaa] (Eterna round: R96, puzzle: Same State NG 1)”, the “apparent KD of MS2 coat protein” value was 934 nM (input ligand: FMN 200 uM), 296 nM under setting [4] and 309 nM (input ligand: none).

For “AUAAGGCAAGCUUUUUUCUCGUAAUGUAAACAUGAGGAUCACCCAUGUGCCCAUCCUGGAUCUUUGGAUCGCAGAAC [Usbexe] (puzzle: Sensor for hsa-mir-208a)”, the “apparent KD of MS2 coat protein” value under setting [1] was 34.6 nM, the “apparent KD of MS2 coat protein” value under setting [2] turned out to be 25.9 nM and the “apparent KD of MS2 coat protein” value under setting [3] amounted to 40.7 nM.

As to “AUAAGGCAAGCUUUUUUCUCGUAGUAUAAACAUGAGGAUCACCCAUGUGCCCACCCUGGAUCUUUGGAUCGCAGAAC [Vetera] (puzzle: Sensor for hsa-mir-208a)”, the “apparent KD of MS2 coat protein” value is, setting by setting: under setting [1], 26.8 nM; under setting [2], 16.5 nM; under setting [3], 26.3 nM.

“AUAAGGCAAGCUUUUUUCUCGUAGUGUAAACAUGAGGAUCACCCAUGUGCCCACCCUAGAUCUUUGGAUCGCAGAAC [Atrageus] (puzzle: Sensor for hsa-mir-208a)”: the “apparent KD of MS2 coat protein” value runs as follows: under setting [1], 22.8 nM; under setting [2], 16.8 nM; under setting [3], 26.8 nM.

Regarding “AUAAGGCAAGCUUUUUUCUCGUAGUGUAAACAUGAGGAUCACCCAUGUGCUCGCCCUGGAUCUUUGGAUCGCAGAAA [Geedbigexe] (puzzle: Sensor for hsa-mir-208a)”, the “apparent KD of MS2 coat protein” value runs as follows: under setting [1], 46.7 nM; under setting [2], 18.6 nM; under setting [3], 45.3 nM.

For the sequence “AUAAGUUCGAUGCUCGUCUCUCCGUACAAACAUGAGGAUCACCCAUGUGAUCGGGCAGUAGCCCGAUCAGUAUGGCC [Soriin] (puzzle: Sensor for hsa-mir-208a)”, the “apparent KD of MS2 coat protein” value was 39.3 nM under setting [1], 20.5 nM under setting [2] and 47.8 nM under setting [3].
